Measurements taken from patent US20250171558A1 (published 2025).
Values belong to the binder of their own block, whether it stands above or below them.

What was measured:
Experiment in all cases: SPR; human
human FcγRIIB = target: T1, human FcγRIIB (human, UniProt P31994 43-217)
T1 chain: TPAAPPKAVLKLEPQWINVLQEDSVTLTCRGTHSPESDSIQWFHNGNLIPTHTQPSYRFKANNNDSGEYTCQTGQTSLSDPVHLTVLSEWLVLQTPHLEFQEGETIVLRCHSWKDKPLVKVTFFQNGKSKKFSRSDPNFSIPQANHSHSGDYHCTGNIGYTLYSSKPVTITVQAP

Afucosylated = target: Afucosylated
SDIE = target: SDIE

Kd (human FcγRIIB): 19.6 µM
B1: GAALIE (protein)
chain: ASTKGPSVFPLAPSSKSTSGGTAALGCLVKDYFPEPVTVSWNSGALTSGVHTFPAVLQSSGLYSLSSVVTVPSSSLGTQTYICNVNHKPSNTKVDKRVEPKSCDKTHTCPPCPAPELLAGPSVFLFPPKPKDTLMISRTPEVTCVVVDVSHEDPEVKFNWYVDGVEVHNAKTKPREEQYNSTYRVVSVLTVLHQDWLNGKEYKCKVSNKALPLPEEKTISKAKGQPREPQVYTLPPSREEMTKNQVSLTCLVKGFYPSDIAVEWESNGQPENNYKTTPPVLDSDGSFFLYSKLTVDKSRWQQGNVFSCSVMHEALHNHYTQKSLSLSPGK

Kd (Afucosylated): 5.88 µM
Kd (SDIE): 0.665 µM
B2: FcγRIIb (receptor)
chain: T1 chain
